Experimental data: the nanobody polyreactivity screen of Harvey et al. (2022)

Experiment: yeast display, Sf9 membrane polyspecificity reagent, FACS + sequencing; frameworks hold sequencing errors
Procedure, shortened: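 Nanobodies from a synthetic yeast display library (Saccharomyces cerevisiae BJ5465), induced 36–48 hours with galactose, were stained 1 hour at 4 °C with 10% biotinylated, detergent-solubilized Sf9 membrane reagent, enriched on streptavidin microbeads, then FACS-sorted. Anti-HA (expression) and streptavidin (reagent binding) fluorescence set low and high (top ~1%) gates. Polyreactivity labels come from the gate of origin. Genes were colony-PCR amplified, MiSeq 2 × 250 sequenced and filtered by CDR length.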

| Sequence | polyreactivity (PSR sort gate) |
| --- | --- |
| QVQLVESGGGLVQAGGSLRLSCAASGNIFATYAMGWYRQAPGKESELVAAITSSGGRTYYADSVKGRFTISRDNAKISVYLQMNSLKPEDTAVYNCNAVYSLYYTRYNYWGHGTQVTVSS | high polyreactivity |
| QVQLVESGGGLVQAGGSLRLSCAASGNIFAYYAMGWYRQAPGKERELVAAISRRGGSTYYADSVKGRFTISRDNAKNTVYLQMNSLKPEDTAVYYCNADTGNRGYDYWGQGTQVTVSS | high polyreactivity |
| QVQLVESGGGLVQAGGSLRLSCAASGNIFDIYAMGWYRQATGKERELVAAICSGGSTYYADSVKGRFTISRDNAKNTVYLQMISLKTEDTAVDYCAESRVGYYRYEYWGQGTQVTVSS | low polyreactivity |
| QVQLVESGGGLVQAGGSLRLSCAASGNIFDRNAMGWYRHAPGKQRELVAAISRSGGRTYYADSVKGRFTISRDNAKNTVYLQMISLKPEDTGVYYCATTYGGTYEYDYWGQGTQVTVSS | high polyreactivity |
| QVQLVESGGGLVQAGGSLRLSCAASGNIFDSNAMGWYRQAPGKERELVAAITWSGGSTYYADSVKGRFTISRDNAKNTVYLQMNSLKPEDTAVYYCNAVRQQRNVPGGQYEFDYWGQGTQVTVSS | high polyreactivity |
| QVQLVESGGGLVQAGGSLRLSCAASGNIFDTNAMGWYRQAPGKERELVATITQRGGTTYYADSVKGRFTISRDNAKNTVYLQINILKPEDTAVYYCNAGPVRLPYDSWGQGTQVTVSS | low polyreactivity |
| QVQLVESGGGLVQAGGSLRLSCAASGNIFFVYDMGWYRQSPGKERELVAAISWSGGSTYADSVKGRFTISRDNAKNTVYLQMNSLKPEDTAVYYCNAQGYRYRIGYDYWGQGTQVTVSS | low polyreactivity |
| QVQLVESGGGLVQAGGSLRLSCAASGNIFGFYTMGWYRQAPGKERELVAAIRSRGGSTNYADSVKGRFTISRDNAKNTVYIQMNSLKPEDTAVYYCNKDGTWLARAVTYADFDYWGQGTQVTVSS | low polyreactivity |
| QVQLVESGGGLVQAGGSLRLSCAASGNIFGIYTMGWYRQAPGKEREFFAVISLSGTSTYYADSVKGRFTISRDNAKNTVYLQMNSLKPEDTAVYYCNARTPHNKGRRRAYDYWGLGTQVTVSS | high polyreactivity |
| QVQLVESGGGLVQAGGSLRLSCAASGNIFGKYAMGWYRQAPGKERELVAAISSGGRTNYADSVKGRFTISRDNAKNTVYLQMNSLKPEDTAVYYCAKRYFRTKGYYYWGQGTQVTVSS | high polyreactivity |
| QVQLVESGGGLVQAGGSLRLSCAASGNIFGWYAMGWYRQAPGKERELVAAISSGGRTNYADSVKGRFTISRDNAKNTVYLQMNSLKPEETAVYYCAVGLHKRPPPPRFRQFNYWGQGTQVTVSS | low polyreactivity |
| QVQLVESGGGLVQAGGSLRLSCAASGNIFGYYVMGWYRPAPGKERELVAGISSGDSTDYADSVKGRFTISRDNAKNTVYLQMNSLKPEDTAVYYCNADWNPTERWFYWYTPLGYDYWGQGTQVTVSS | low polyreactivity |
| QVQLVESGGGLVQAGGSLRLSCAASGNIFHFYAIARYRQAPRKERELVATISWRGDGTYYADSVKGRFTISRDKAKNTVYFQLISLKPEETAVDYCAARGVWPEYDYWGQGTQVTVSS | low polyreactivity |
| QVQLVESGGGLVQAGGSLRLSCAASGNIFKGYAMGWYRQAPGKERELVAAISKSGGSTYYADSVKGRFTISRDNAKNTVYLQMNSLKPEDTAVYYCAARSGGSGGTYGYWGQGTQVTVSS | high polyreactivity |
| QVQLVESGGGLVQAGGSLRLSCAASGNIFKSYTMGWYRQAPGKERELVAAITSGGRTNYADSVKGRFTISRDNAKNTVYLQMNSLKPEDTAVYYCAAKHFRWGTGDYWGQGTQVTVSS | high polyreactivity |
| QVQLVESGGGLVQAGGSLRLSCAASGNIFKWYAMGWYRQAPGKERELVAAISKSGGSTYYADSVKGRFTISRDNAKNTVYLQMNSLKPEDTAVYYCAAGWKHGTYRYTVESNFDYWGQGTQVTVSS | high polyreactivity |
| QVQLVESGGGLVQAGGSLRLSCAASGNIFKYYAMGWYRQAPGKERELVAAISWGGSRTYYADSVKGRFTISRDNAKNTVSLQMNSLKPEDTAVYYCAARVYGVDGFGYWGLGTQVTVSS | high polyreactivity |
| QVQLVESGGGLVQAGGSLRLSCAASGNIFLFYVMAWYRQAPGKERELVAAITLSGTNTYYADSVKGRFTISRDNAKNTVYLQMNSLKPDDTAVYYCAAEPKTYDWYPWGQVIENYWGQGTQVTVSS | low polyreactivity |
| QVQLVESGGGLVQAGGSLRLSCAASGNIFLYYAMGWYIPAPGKEREFVSDIDSSGASTYYADSVKGRFTISRDNAKNTVYLQMNSLKPEDTAVYYCAAEFHWWYAGYDYGYWGQGTQVTVSS | low polyreactivity |
| QVQLVESGGGLVQAGGSLRLSCAASGNIFLYYAMGWYRQAPGKERELVADIDASGASTYYADSVKGRFTIARDNAKKTVYLQLNSLTPEDTAVYYCAAEFHWWYAGYDYGYWGQGTQVTVSS | low polyreactivity |
| QVQLVESGGGLVQAGGSLRLSCAASGNIFNEYAMGWYRQAPGKERELVAAITWSAGSTYYADSVKGRFTISRDNAKNTVYLQMNSLKPEDTAVYYCNAEYTWHRGYDYWGQGTQVTVSS | low polyreactivity |
| QVQLVESGGGLVQAGGSLRLSCAASGNIFPAYAMGWYRPAPGKERELVATISRRGGGTYYADSVKGRFTISRDNAKNTVYLQMNSLKPEDTAVYYCNGAGWTSAYDYWGQGTQVTVSS | low polyreactivity |

| Sequence | polyreactivity (PSR sort gate) |
| --- | --- |
| QVQLVESGGGLVQAGGSLRLSCAASGNIFPGYAMGWYRQAPGKERELVAGISGSGGRTYYADSVKGRFTISRDNAKITVYLQMNSLKPEDSAVYYCAAEFKYYYRFEYDYWGQGTQVTVSS | low polyreactivity |
| QVQLVESGGGLVQAGGSLRLSCAASGNIFPRYAMGWYRQATGKERELVAAITWRTSSTYYADSVKGRFTISRDNAKNTVYLQMNSLKPEDTAVYYCAKTSSRIAGEYWGQGTQVTVSS | low polyreactivity |
| QVQLVESGGGLVQAGGSLRLSCAASGNIFQKYAMGWYRQAPGKERELVAAIRRGDRTYADSVKGRFTISRDNAKNTVYLQMISLKPEDTAVYYCAAPQVWWGYYTRGVDYWGQGTQVTVSS | low polyreactivity |
| QVQLVESGGGLVQAGGSLRLSCAASGNIFRPYTMGWNRQEPGKERELVARISSGGSTNYADSVKGRFTISRDNAKNTVYFQMNSLKPEDTAVYYCAKRYGTVHSRYGYWGQGTQVTVSS | high polyreactivity |
| QVQLVESGGGLVQAGGSLRLSCAASGNIFRPYTMGWYRQAPGKERELVARISSGGSTNYADSVKGRFTISRDNAKNTVNLQMNSLKPEDTAVYYCAKRYGTVHSRYGYWGQGTQVTVSS | high polyreactivity |
| QVQLVESGGGLVQAGGSLRLSCAASGNIFRTYAMGWYRQAPGKERELVAAISRGGRTYYADSVKGRFTISRDNAKNSVYLQMNSLKPVDTAVYYCNVQPDRISRYDYWGQGTQVTVSS | high polyreactivity |
| QVQLVESGGGLVQAGGSLRLSCAASGNIFRYYAMGWYRQSPGKERELVAAITRSGGSTYADSVKGRFTISRDNAKNTVYLQMNSLKPEDTAVYYCAAVGYRYFTIYDYWGQGTQVTVSS | low polyreactivity |
| QVQLVESGGGLVQAGGSLRLSCAASGNIFSDNAMGWYRQAPGKERELVAAITASTSDTYYADSVKGRFTISRDNAKNSVYLQMNSLKPEDTAVYYCAADSRGFQLFDYWGQGTQVTVSS | low polyreactivity |
| QVQLVESGGGLVQAGGSLRLSCAASGNIFSFYAMGWNRPAPGKERELVAAINWSGGDTYYADSVKGRFTISRDNAKNTVYLQMNSLKPEDTAVYYCAAEYYYQYYPGGYDYWGQGTQVTVSS | high polyreactivity |
| QVQLVESGGGLVQAGGSLRLSCAASGNIFSSNAMGWYRHAPGKEREVVAAITRSGGSTYYADSVKGRFTISRDNAKNTVYLQMNSLKPEDTAVYYCAAGKPRSKYWYDYWGQGTQVTVSS | high polyreactivity |
| QVQLVESGGGLVQAGGSLRLSCAASGNIFSSNAMGWYRQAPGKERELVAAISASGGNTYYADSVKGRFTISRDNAKNTVYLQINSLKPEDTAVYYCNAYRGGYLRRGYYYWGQGSQVTVSS | high polyreactivity |
| QVQLVESGGGLVQAGGSLRLSCAASGNIFSTYAMGWYRQAPGKERELVAAISKSGGRTYYADSVKGRFTISRDNAKNTVYLQMNSLKPEDTAVYYCNKRYQHGISFGYGYWGQGTQVTVSS | high polyreactivity |
| QVQLVESGGGLVQAGGSLRLSCAASGNIFSWNTMGWYRQAPGKERELVAAITYRGTRTFYADSVKRRFTISRDNAKNTVYLQMNSLKPEDTEVYYCAATRYAPYRRYYYWGQGTQVTVSS | high polyreactivity |
| QVQLVESGGGLVQAGGSLRLSCAASGNIFTFNAMGWYRQAPGKERELVAAIRSGGSTNYADSVKGRFTISRDNAKNTVYLQMNSLKPEDTAVYYCAAKRYVQGYVYRYGYWGQGTQVTVSS | high polyreactivity |
| QVQLVESGGGLVQAGGSLRLSCAASGNIFTSYAMGWYRQAPGKERELVAAISSGGRTSYADSVKGRFTISRDNAKNTVYLEMNSLKPEDNAVYYCAAYYRRWQREYYYWGQGTKVTVSS | high polyreactivity |
| QVQLVESGGGLVQAGGSLRLSCAASGNIFTYYVRGWYRQEPGKERELVAAISRRGGSTYYADSVKGRFTISRDFAKNTVYLQMNSLKPEDTAVYYCAKKYPRDMDYWGQGTQVTVSS | high polyreactivity |
| QVQLVESGGGLVQAGGSLRLSCAASGNIFVFYVMGWYRPAPGKERELVASISSTGNTYYADSVKGRFTISRDNAKNTVYLQMNSLKPEDTAVYYCNADPIFVYSSYNYWGQGTQVTVSS | low polyreactivity |
| QVQLVESGGGLVQAGGSLRLSCAASGNIFVNYAMGWYRQAPGKERELVASINYNGGNTYYADSVKGRFTISRDNAKNTVYLQMNSLKPEDTAVYYCAKDGGGLLRWYTDEYDYWGQGTQVNVSS | low polyreactivity |
| QVQLVESGGGLVQAGGSLRLSCAASGNIFVSYDLGWYRQAPGKERELVAAISWRGGSTYYADSVKGRFTNSRDNAKNTVFLKMNSLKPEDTAVYYCSVDDWLDWLFADFGYWGQGTQVTVSS | low polyreactivity |
| QVQLVESGGGLVQAGGSLRLSCAASGNIFVYNAMGWYRQAPGKERELVAAISWTGGSTYYADSVKGRFTISRDNAKNTVYLQMNSLKPEDTAVYYCAKSFGIWHARWLTYDYWGQGTQVTVSS | low polyreactivity |
| QVQLVESGGGLVQAGGSLRLSCAASGNIFYINAMGWYRQAPGKERELVAAISSGGRTNYADSVKGRFTISRDNAKNTVYLQMNSLKPEDTAVYYCGAEGPEIKYYYWGQGTQVTVSL | low polyreactivity |
